Test results published in publication PMC7311433, “Two novel fish paralogs provide insights into the Rid family of imine deaminases active in pre-empting enamine/imine metabolic damage” (Scientific Reports, 2020).

Key:
[1] = target: Salmo salar RidA-1 (Salmo salar); assay: native MS; ESI mass spectra of 0.5 mg/mL protein in 10 mM ammonium formate; SsRidA-2 also after ultrafiltration on 30 kDa-cutoff membranes (retentate)
[2] = target: Salmo salar RidA-1 (Salmo salar); assay: SEC-MALS; 200 uL of 1 mg/mL protein on Superdex 75 10/300 GL in physiological saline (0.9% w/v NaCl), 0.5 mL/min, mobile phase pH 5.8; MALS and DLS detection
[3] = target: Salmo salar RidA-1 (Salmo salar); assay: crystal structure; sitting drop at 20 °C, protein 7.5 mg/mL in 154 mM NaCl; SsRidA-1 from 0.2 M NaCl, 0.1 M sodium acetate pH 5.0, 20% PEG 6000; SsRidA-2 from 0.1 M ammonium sulfate, 0.1 M sodium acetate, 25% PEG 4000; data at 100 K
[4] = target: Salmo salar RidA-2 (Salmo salar); assay: native MS; ESI mass spectra of 0.5 mg/mL protein in 10 mM ammonium formate; SsRidA-2 also after ultrafiltration on 30 kDa-cutoff membranes (retentate)
[5] = target: Salmo salar RidA-2 (Salmo salar); assay: SEC-MALS; 200 uL of 1 mg/mL protein on Superdex 75 10/300 GL in physiological saline (0.9% w/v NaCl), 0.5 mL/min, mobile phase pH 5.8; MALS and DLS detection
[6] = target: Salmo salar RidA-2 (Salmo salar); assay: crystal structure; sitting drop at 20 °C, protein 7.5 mg/mL in 154 mM NaCl; SsRidA-1 from 0.2 M NaCl, 0.1 M sodium acetate pH 5.0, 20% PEG 6000; SsRidA-2 from 0.1 M ammonium sulfate, 0.1 M sodium acetate, 25% PEG 4000; data at 100 K
[7] = target: the molecule itself; assay: SEC-MALS; 200 uL of 1 mg/mL protein on Superdex 75 10/300 GL in physiological saline (0.9% w/v NaCl), 0.5 mL/min, mobile phase pH 5.8; MALS and DLS detection

**Q.** Which results are given for Salmo salar RidA-1 (enzyme)?
**A.** stoichiometry N [1]: 3; stoichiometry N [2]: 3; stoichiometry N [3]: 3

**Q.** For Salmo salar RidA-2 (enzyme), which stoichiometry N [4] is on record?
**A.** The stoichiometry N was 3.

**Q.** What about the stoichiometry N [5] of the same molecule?
**A.** The stoichiometry N was 3.

**Q.** What about the stoichiometry N [6] of the same molecule?
**A.** Its stoichiometry N is 3.

B1: goat RidA (UK114) (enzyme, goat (Capra hircus))
chain: SSLVRRIISTAKAPAAIGPYSQAVLVDRTIYISGQLGMDPASGQLVPGGVVEEAKQALTNIGEILKAAGCDFTNVVKATVLLADINDFSAVNDVYKQYFQSSFPARAAYQVAALPKGGRVEIEAIAVQGPLTTASL
notes: also called ChRidA; goat UK114
**Q.** With B1 as the molecule, how does the “stoichiometry N” value [7] read?
**A.** Its value is 3.
